According to patent publication US20230374148A1, “BINDING MOLECULES THAT MULTIMERISE CD45” (UCB BIOPHARMA SRL, priority 2020, published 2023):

Assays:
CD45 ECD = biological target: T1, CD45 ECD (Homo sapiens, UniProt P08575); experiment: Sedimentation velocity, analytical ultracentrifuge; assay type: binding; conditions: for Experimental S value: molar 1:1 mixture
T1 construct: extracellular domain of CD45 (UniProtKB—P08575, residue positions 225-573); TEV cleavage site (C); 10-His tag (C); made in house; host or cells: HEK293
T1 sequence (P08575 225-573): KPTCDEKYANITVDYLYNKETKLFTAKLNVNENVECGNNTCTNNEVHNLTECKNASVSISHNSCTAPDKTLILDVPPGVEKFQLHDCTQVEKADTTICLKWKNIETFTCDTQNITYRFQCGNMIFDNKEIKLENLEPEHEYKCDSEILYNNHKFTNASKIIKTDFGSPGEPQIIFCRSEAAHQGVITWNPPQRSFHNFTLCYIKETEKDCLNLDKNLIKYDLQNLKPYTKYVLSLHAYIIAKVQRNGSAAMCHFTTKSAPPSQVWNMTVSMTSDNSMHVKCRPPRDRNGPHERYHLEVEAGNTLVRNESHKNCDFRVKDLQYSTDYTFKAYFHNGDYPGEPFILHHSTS
Protocol: CD45 ECD and 4133-6294 BYbe were mixed in a molar ratio of 1:1 and incubated for 1 hour at room temperature. The molar ratio was determined using the predicted mass of 4133-6294 BYbe at 73.5 kDa and the mass of CD45 ECD as determined by mass photometry at 62 kDa.
The CD45 ECD-4133-6294 BYbe mixture, CD45 ECD only or 4133-6294 BYbe only were loaded into cells with 2-channel charcoal-epon centrepieces with 12 mm optical path length and glass quartz glass windows. The corresponding buffer was loaded into the reference channel of each cell (the instrument functions like a dual beam spectrometer). Those loaded cells were then placed into an AN-60Ti analytical rotor, loaded into a Beckman-coulter Optima analytical ultracentrifuge and brought to 20° C. The rotor was then brought to 3,000 rpm and the samples were scanned at 280 nm to confirm proper cell loading and appropriate adjustment of the laser, via the laser delay setting. The rotor was then brought to the final run speed of 50,000 rpm. Scans were recorded every 20 seconds for 8 hours. Radial scans ranged from 5.75 to 7.25 cm.
The data were analysed using the c(s) method developed by peter Shuck at the N.I.H and implemented in his analysis program SEDFIT version 14.6e. In this approach many raw data scans directly fitted (36,000 data points for each sample in this case) to derive the distribution of sedimentation coefficients, while modelling the influence of diffusion on the data in order to enhance the resolution. The method works by assigning a diffusion coefficient to each value of sedimentation coefficient based on an assumption that all species have the same overall hydrodynamic shape (with shape defined by the frictional coefficient relative to that for a sphere, f/f0). The f/f0 values were varied to find the best overall fit of the data for each sample. A maximum entropy regularization probability of 0.95 was used and time invariant noise was removed. The analysis was performed using the standard solvent model.

Human whole blood = experiment: Apoptosis of lymphocytes in whole blood; assay type: cell-based; conditions: 5 hrs
Protocol: Human whole blood (Lithium heparin tubes) was taken from two donors (HTA #051119-01 & #051119-02) at UCB Pharma Slough, UK according to approved ethical sample collection protocol.
In a Greiner 96-well non-binding microplate, Fab-X and Fab-Y combinations 6294-X/4133-Y and NegCtrl-X/4133-Y, were added to PBS to give a Fab-KD-Fab concentration of 2750 nM. Similarly, a 2750 nM stock of 4133-6294 BYbe in PBS was prepared. The microplate was incubated for 1 hr at 37° C., 5% CO2. Following the incubation, Fab-KD-Fab and BYbe reagents were then serially diluted in PBS 1 in 5, nine times to produce to form a 10-point dose curve.
5 μl of each Fab-KD-Fab or BYbe dilution was added to Nunc™ 96-Well Polypropylene DeepWell™ plates (ThermoFisher). Then 50 μl of blood was added to each well, the plate gently mixed and sealed with a plate seal that allows gas exchange. These cells were then incubated for 5 hrs at 37° C., 5% CO2. Running the assay for a short time period avoids the need to add an anti-coagulant.
Following the incubation, 950 μl of BD Phosflow BD Lyse/Fix (cat no. BD558049, FisherScientific) was added to each well and the plate incubated at 37° C., 5% CO2 for 10 minutes. The plate was then spun at 500 g for 8 min, at 4° C. The buffer was aspirated and 1 ml of FACS buffer (PBS+1% bovine serum albumin (BSA)+0.1% NaN3+2 mM EDTA, Sigma Aldrich) added to wash cells using an Integra Viaflo 96 channel pipette. The plate was spun at 500 g for 8 min, at 4° C. As before, the buffer was aspirated and 1 ml of FACS buffer added to wash cells. This was followed by a slower spin at 250 g for 10 min, at 4° C. Again, buffer was aspirated and 1 ml of FACS buffer added to wash cells.
The plate was re-spun at 500 g for 8 min, at 4° C. Buffer was aspirated leaving the cells in a minimal residual volume for cell-specific antibody staining. 20 μl of cell-specific antibody cocktail (shown in Table 7 below) was added to the wells and the plate incubated for 1 hr at 4° C.
Following the incubation with the antibody cocktail, cells were washed twice as outlined above and buffer aspirated to leave the cells in 20 μl residual buffer. 20 μl of FACS buffer was then added to samples to dilute the cells. Cells were analysed live using the Intellicyt iQue Screener PLUS. Live cell counts were extracted as metrics and graphical representations generated using Graphpad Prism version 8.1 (Graphpad). Asymmetric (five parameter) curve fitting was applied to derive maximal % cell reduction and EC50 values.

- Experimental S value (CD45 ECD; CD45 1:1 BYbe complex): 6.9 S
- Percentage of area under the curve (CD45 ECD; CD45 1:1 BYbe in molar 1:1 mixture): 11.99%
- Experimental S value (CD45 ECD; CD45 2:1 BYbe complex): 7.15 S
- Experimental S value (CD45 ECD; CD45 2:2 BYbe complex): 8.78 S
- Percentage of area under the curve (CD45 ECD; CD45 2:2 BYbe in molar 1:1 mixture): 37.7%
- Experimental S value (CD45 ECD; CD45 3:3 BYbe complex): 10.04 S
- Percentage of area under the curve (CD45 ECD; CD45 3:3 BYbe in molar 1:1 mixture): 35.7%
- Experimental S value (CD45 ECD; CD45 4:3 BYbe complex): 11.12 S
- Experimental S value (CD45 ECD; CD45 4:4 BYbe complex): 13.3 S
- Percentage of area under the curve (CD45 ECD; CD45 4:4 BYbe in molar 1:1 mixture): 3.46%
- Percentage of area under the curve (CD45 ECD; CD45 (uncomplexed) in molar 1:1 mixture of CD45 ECD and BYbe): 9.21%
B1: 4133-6294 BYbe: anti-CD45 BYbe (Fab-scFv): 4133 Fab HC-G4S linker-6294 scFv heavy chain paired with 4133 light chain (antibody)
heavy: QEQLVESGGGLVQPEGSLTLTCTASGFSFSGNYYMCWVRQAPGKGLEWIGCLYTGSSGSTYYASWAKGRFTISKTSSTTVTLQMTSLTAADTATYFCARDLGYEIDGYGGLWGQGTLVTVSSGQPKAPSVFPLAPCCGDTPSSTVTLGCLVKGYLPEPVTVTWNSGTLTNGVRTFPSVRQSSGLYSLSSVVSVTSSSQPVTCNVAHPATNTKVDKTVAPSTCSKPGGGGSGGGGSEVQLVESGAELARPGASVKMSCKASGYTFTSYTMHWVKQRPGQCLEWIGYINPSSGYTEYNQKFKDKTTLTADKSSSTAYLQLSSLTSEDSAVYYCARVGDGFYPSWLAYWGQGTLVTVSSGGGGSGGGGSGGGGSGGGGSDIQMTQSPKFLLVSAGDRVTITCKASQSVRNDVAWYQQKPGQSPKLLIFYASKRYTGVPDRFTGSGYGTDFTFTISTVQAEDLAVYFCQQDYSSPTTFGCGTKLEIK
light: AQVLTQTPSPVSAVVGGTVSISCQASQSVYNNNNLSWYQQKPGQPPKLLIYDASKLASGVPSRFKGSGSGTQFTLTISGVQCDDAATYYCLGGYYSSGWYFAFGGGTKVVVKRTPVAPTVLIFPPAADQVATGTVTIVCVANKYFPDVTVTWEVDGTTQTTGIENSKTPQNSADCTYNLSSTLTLTSTQYNSHKEYTCKVTQGTTSVVQSFNRGDC
- Max % reduction (Human whole blood; CD4+, Donor 1, whole blood): 50%
- Max % reduction (Human whole blood; CD4+, Donor 2, whole blood): 54%
- Max % reduction (Human whole blood; Total lymphocytes, Donor 1, whole blood): 34%
- Max % reduction (Human whole blood; Total lymphocytes, Donor 2, whole blood): 44%
